Data: patent US20140179898A1

Target: IgG1-type humanized monoclonal antibody
Assay: stepwise pH affinity chromatography (bound at pH 7.0, elution buffer pH 4.0), bought column

HiTrap rProtein A FF (GE Healthcare) (from UniProt P38507 37-327)
pH of the antibody's elution peak: 3.7 pH
